T1: GST-Rit2, Q99578
T1 chain: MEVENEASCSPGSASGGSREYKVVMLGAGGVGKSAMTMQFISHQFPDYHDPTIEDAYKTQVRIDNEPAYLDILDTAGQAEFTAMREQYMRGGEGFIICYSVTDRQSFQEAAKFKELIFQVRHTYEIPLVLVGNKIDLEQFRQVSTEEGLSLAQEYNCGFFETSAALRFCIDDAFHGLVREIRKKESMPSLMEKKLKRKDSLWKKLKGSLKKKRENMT


How the values were obtained:
[1] = target: Recombinant 6xHis-tagged KRas (rKRas; KRas4B NP_004976.2), P01116
GST-Rit2, Q99578 = target: T1, GST-Rit2, Q99578
[2] = target: Recombinant 6xHis-tagged HRas (rHRas; NP_001123914.1), P01112
[3] = target: Recombinant 6xHis-tagged NRas (rNRas; NP_002515.1), P01111
Chain of Recombinant 6xHis-tagged NRas (rNRas; NP_002515.1), P01111 (P01111 whole entry): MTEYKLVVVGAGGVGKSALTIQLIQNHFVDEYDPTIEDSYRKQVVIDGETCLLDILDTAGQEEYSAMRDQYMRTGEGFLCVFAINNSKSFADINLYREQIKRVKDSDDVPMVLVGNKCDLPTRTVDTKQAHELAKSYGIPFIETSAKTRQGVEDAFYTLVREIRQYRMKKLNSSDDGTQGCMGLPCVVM

[4] = target: GST-HRas (rGST-HRas), P01112
Chain of GST-HRas (rGST-HRas), P01112 (P01112 whole entry, looked up): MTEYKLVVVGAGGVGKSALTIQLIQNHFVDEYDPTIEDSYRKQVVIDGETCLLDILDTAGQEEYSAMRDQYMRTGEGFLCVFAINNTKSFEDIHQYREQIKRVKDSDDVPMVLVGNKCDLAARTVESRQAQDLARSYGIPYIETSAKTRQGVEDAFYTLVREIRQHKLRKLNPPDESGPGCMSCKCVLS

Chain of Recombinant 6xHis-tagged HRas (rHRas; NP_001123914.1), P01112 (P01112 whole entry, looked up): as above

Protein | in vitro cleavage, SDS-PAGE [1] | in-vitro cleavage of GST-fusion GTPases (GST-Rit2, Q99578) | in vitro endopeptidase assay, SDS-PAGE [2] | in vitro cleavage with varying concentrations of EDTA, equimolar 10 µM, 30 minutes at 37 C [1] | in vitro cleavage with varying concentrations of phenanthroline, equimolar 10 µM, 30 minutes at 37 C [1] | in vitro endopeptidase assay, SDS-PAGE [1] | in-vitro cleavage reaction of purified proteins [1] | in vitro endopeptidase assay, SDS-PAGE [3] | in vitro cleavage of rGST-GTPase, SDS-PAGE [4]
Recombinant 6xHis-tagged DUF5Pa (P. asymbiotica ATCC43949 hypothetical protein, P41-V532) (protein) MVFEHDKTVERKRKPSIQLGNDKEKSSEQALELPQSKQNNPLLHDLITSNNLRKEAAVFAKQIGPSYQGILDGLEHLHNLSGNEQLTAGFELHRRITRYLEEHPDSKRNAALRRTQTQLGDLMFTGTLQEVRHPLLEMAETRPAMASQIYQIARDEAKGNTPGLTDLMVRWVKEDPYLAAKSGYQGKIPNDLPFEPKFHVELGDQFGEFKTWLDTAQNQGLLTHTRLDEQNKQVHLGYSYNELLDMTGGVESVKMAVYFLKEAAKQAEPGSAKSQEAILLNRFANPAYLTQLEQGRLAQMEAIYHSSHNTDVAAWDQQFSPDALTQFNHQLDNSVDLNSQLSFLLKDRQGLLIGESHGSDLNGLRFVEEQMDALKAHGVTVIGLEHLRSDLAQPLIDKFLTSENEPMPAELAAMLKTKHLSVNLFEQARSKQMKIIALDNNSTTRPAEGEHSLMYRAGAANNVAVERLQQLPAEEKFVAIYGNAHLQSHEGIDHFLPGITHRLGLPALKVDENNRFTAQADNINQRKCYDDVVEVSRIQLTS | shown to also cleave rKRas |  |  |  |  |  |  |  | 
Recombinant 6xHis-tagged DUF5Ah (A. hydrophila ATCC7966 MARTXAh P3069-V3570) (protein) PGKTGVTERTARLFADVYSPDELKKAAQVFAKPIGESYQQILDQLATLHGASGQAKVEAALRLNNLIDDYLVKHEGSGRNPALSKLQSQLHGNLYRGELASLQAEVTALAKTRPDLAAIVIGKAAEEAQGQHPGLTQMVLRWAAQDPYLAAKAGYQGVVPADLPFDARFHIALGEQHDDLKKWLTEAQGKGLLNRAVLDDTRKVLHLGYSYQELQDMTGEQSAQMAVYFIKEAAKQAAPGSELSAELIMLDKFGDRRYLGELESRRIAQIENIYHSSKQTDVAAWDARYGGDALRTLNNQLDGESTLAGQLSRLLDNRNGLLIGETHGSDVNGLRFVNEQMDALKIQGVTVIALEHLRSELAQPLIDRYLAGGEMSPELTSMLKNKHLEPSLFERARERGMRIVALDDGSTARPAIAGTEHGLMYRAGAANNVAVEVLGKLPAGEKFVAIYGSAHLGSHKGIEGFVPGITHRLGLPALKVDADNRFHLQADDVSQRVEYADVGRKWTPVAAL | The recombinant protein rDUF5Ah was able to cleave rKRas in the in vitro reaction |  |  |  |  |  |  |  | 
Recombinant 6xHis-tagged DUF5Vv (rDUF5Vv; V. vulnificus CMCP6 MARTXVv Q3596-L4089) (protein) QELKERAKVFAKPIGASYQGILDQLDLVHQAKGRDQIAASFELNKKINDYIAEHPTSGRNQALTQLKEQVTSALFIGKMQVAQAGIDAIAQTRPELAARIFMVAIEEANGKHVGLTDMMVRWANEDPYLAPKHGYKGETPSDLGFDAKYHVDLGEHYADFKQWLETSQSNGLLSKATLDESTKTVHLGYSYQELQDLTGAESVQMAFYFLKEAAKKADPISGDSAEMILLKKFADQSYLSQLDSDRMDQIEGIYRSSHETDIDAWDRRYSGTGYDELTNKLASATGVDEQLAVLLDDRKGLLIGEVHGSDVNGLRFVNEQMDALKKQGVTVIGLEHLRSDLAQPLIDRYLATGVMSSELSAMLKTKHLDVTLFENARANGMRIVALDANSSARPNVQGTEHGLMYRAGAANNIAVEVLQNLPDGEKFVAIYGKAHLQSHKGIEGFVPGITHRLDLPALKVSDSNQFTVEQDDVSLRVVYDDVANKPKITFKGSL |  | Rit2 was not cleaved at all | showed the cleavage of rKRas, rHRas, and rNRas by rDUF5Vv | Cleavage was still observed | Cleavage was still observed | showed the cleavage of rKRas, rHRas, and rNRas by rDUF5Vv | rKRas was efficiently cleaved within 10 min in a concentration-dependent manner | The cleavage of rNRas was less efficient compared to rKRas and rHRas | DUF5Vv could cleave only HRas

Reference: US20230045284
